Drawing on publication PMC11724954, this text covers Kd for six molecules.

T1: QCP (bacteriophage Qβ coat protein) (bacteriophage Qβ, UniProt P03615 2-133)
T1 sequence: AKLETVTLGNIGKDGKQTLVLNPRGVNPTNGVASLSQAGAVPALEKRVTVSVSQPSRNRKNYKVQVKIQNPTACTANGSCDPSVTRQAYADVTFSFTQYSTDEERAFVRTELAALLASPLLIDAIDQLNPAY

The target of this series is T1, QCP (bacteriophage Qβ coat protein). In words: SPR. For orientation: SPR reads the build-up and loss of mass on a sensor chip optically.
For CCAUUAGCUAAGCUAAUGGAAAAAAAAAAAAAAAAAAAAAAAA (structured_RNA) [A14], binding was put at a Kd of 0.0178 µM. Under CCUCUAGCUAAGCUAUAGGAAAAAAAAAAAAAAAAAAAAAAAA (structured_RNA) [A17] stands 0.0908 µM; under CCUUUAGCUAAGCUAAUGGAAAAAAAAAAAAAAAAAAAAAAAA (structured_RNA) [A16], 0.0289 µM; under CCCUUAGCUAAGCUAAGUGAAAAAAAAAAAAAAAAAAAAAAAA (structured_RNA) [A18], 0.016 µM. Turning to CCGUUAGCUAAGCUAAUGGAAAAAAAAAAAAAAAAAAAAAAAA (structured_RNA) [A15], the Kd (commonly a measure of binding affinity in units of concentration) is 0.0862 µM.

Consider CCCUUAGCUAAGCUAAGGUAAAAAAAAAAAAAAAAAAAAAAAA (structured_RNA) [A19], for which the dissociation constant Kd amounted to 0.0804 µM.
